Laboratory results as given in PMC7024214.

Molecular target: elastase (UniProt P00772)

inhibition of the activity of elastase (IC50) [nM] | Substance
4 | tutuilamide A (peptide)
3.6 | tutuilamide B (peptide)
